The source of these data is patent US20090004675A1, “Method of Identifying Compounds for Bacterial Growth Modulation” (priority 2004, published 2009).

Assay [1] concerns the target Escherichia coli β clamp (beta subunit of DNA polymerase III holoenzyme) (UniProt P0A988). As to the kind of experiment: fluorescence anisotropy; labeled peptide.
For assay [2] the target is unchanged. As to the kind of experiment: fluorescence (fluorophore-labeled β titrated with peptide); ±0.9; labeled β.
Assay [3] shares this target. As to the kind of experiment: fluorescence (fluorophore-labeled β titrated with peptide); ±0.6; labeled β.

Escherichia coli β clamp (beta subunit of DNA polymerase III holoenzyme), sequence (P0A988 whole entry): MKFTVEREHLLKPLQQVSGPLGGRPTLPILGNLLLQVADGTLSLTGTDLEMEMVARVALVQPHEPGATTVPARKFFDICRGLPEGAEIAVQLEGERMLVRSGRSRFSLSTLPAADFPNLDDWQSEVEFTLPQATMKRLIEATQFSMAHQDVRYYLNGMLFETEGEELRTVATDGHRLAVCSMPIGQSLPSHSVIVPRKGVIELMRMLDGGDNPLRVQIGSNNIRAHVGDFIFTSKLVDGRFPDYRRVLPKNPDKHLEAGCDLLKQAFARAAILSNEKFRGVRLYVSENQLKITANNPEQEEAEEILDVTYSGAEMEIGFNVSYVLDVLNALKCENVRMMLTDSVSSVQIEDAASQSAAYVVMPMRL
C-terminal peptide corresponding to Staphylococcus aureus Pol C, sequence (A6QGG4 1419-1438): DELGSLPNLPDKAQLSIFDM
Peptide corresponding to C-terminal residues of Streptococcus pyogenes Pol C, sequence (A2RGI3 1444-1465): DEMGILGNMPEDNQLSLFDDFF

Consider “C-terminal peptide corresponding to Staphylococcus aureus Pol C”, for which the Kd in assay [1] is 5.9 µM; in assay [2], 7.2 µM.

For the substance “Peptide corresponding to C-terminal residues of Streptococcus pyogenes Pol C”, the Kd in assay [1] amounted to 1.5 µM; in assay [3], 2500 nM.
